Values joined by “and” are separate entries in the source; they are usually repeats but may differ in a detail not shown here. Equal values may be shown once. Read-outs that look alike come from different tables or passages of the source. Blank lines part the entries; values can stand above or below the molecule they belong to. Where a SMILES comes first, the peptide text is derived from it. Where no end group is shown, it is not given here. [ ]: non-standard residue; d: D form. Hyp = O=C(O)[C@@H]1C[C@@H](O)CN1
Assays:
[1] = target: T1, CTR ECD (Homo sapiens, UniProt P30988); assay: FP competition peptide binding assay with purified CTR ECD, FITC-sCT(22–32) probe; details: for Ki: CTR ECD 500 nM, FITC-sCT(22–32) 10 nM, mean ± SD of N = 3 independent experiments
T1 construct: pHLsec/hCTR.34–141-H6 (H-pSL003); H6 (His6) (C); made in house; host or cells: HEK293T
T1 sequence (P30988 34-141): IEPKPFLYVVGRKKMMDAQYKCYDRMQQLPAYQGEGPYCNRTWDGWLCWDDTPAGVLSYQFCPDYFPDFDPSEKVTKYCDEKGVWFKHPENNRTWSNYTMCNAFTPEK
Description: The overall procedures of FP peptide binding assay with receptor ECDs and FITC-labeled peptide probes were previously described. […] A SpectraiD5 (Molecular Devices, San Jose, CA, USA) was used to measure fluorescence polarization/anisotropy. Background (reaction buffer only) was subtracted for anisotropy calculation. For the SpectraiD5, G factor (0.38 for FITC-sCT(22–32) and 0.41 for FITC-AC413(6–25) and FITC-AC413(6–25) Y25P) was used to correct the instrumental bias for anisotropy calculation. The polarization (mP) of the FITC-peptide probes only (No receptor ECD) was set close to 50 mP. For the saturation binding assay, the anisotropy values were re-calculated when total fluorescence intensity was changed by more than 10% as previously described. […] Anisotropy values were used to produce non-linear regression curves with PRISM 5.0 (GraphPad software, San Diego, CA, USA) as previously described. KI indicates affinity values obtained from competition binding assay and it was calculated from the non-linear regression curves of anisotropy by using equations previously described. Concentrations of the FITC-labeled peptide and the total receptor protein and the affinity of the FITC-labeled peptide for the receptor protein were incorporated into the equations for the KI calculation of the competitive peptide ligand. Two technical replicates were used for each receptor concentration in the peptide-binding curve. SEM of the anisotropy values of the two replicates at each receptor concentration were presented as error bars in the representative peptide-binding curves. When the error bars were shorter than the height of the symbol, they were omitted in the representative curves. At least three independent peptide binding experiments were performed to obtain three independent peptide-binding curves. Mean and standard deviation of peptide ligand affinity were calculated from them.

[2] = target: T2, RAMP1-CTR ECD fusion protein (hRAMP1.24–111-(GSA)3-hCTR.34–141-H6) (human, UniProt O60894 24-111; P30988 34-141); assay: fluorescence polarisation; competition binding, full curves: FITC-AC413(6–25) Y25P probe 10 nM, RAMP1-CTR ECD 77 nM, RAMP2-CTR ECD 67 nM or RAMP3-CTR ECD 252 nM, competitive peptide at multiple concentrations, all in solution; KI from non-linear regression of anisotropy; details: both partners purified
T2 construct: human receptor activity-modifying protein 1 (RAMP1), extracellular domain, residues 24-111; linker, printed as (GSA)3; human calcitonin receptor (CTR), extracellular domain, residues 34-141; Secreted from a pHLsec-based vector; also called AMY receptor 1 ECD; RAMP1 ECD-CTR ECD fusion; source: HEK293T, transiently transfected, secreted to cell culture media, purified (IMAC, SEC)
T2 chain: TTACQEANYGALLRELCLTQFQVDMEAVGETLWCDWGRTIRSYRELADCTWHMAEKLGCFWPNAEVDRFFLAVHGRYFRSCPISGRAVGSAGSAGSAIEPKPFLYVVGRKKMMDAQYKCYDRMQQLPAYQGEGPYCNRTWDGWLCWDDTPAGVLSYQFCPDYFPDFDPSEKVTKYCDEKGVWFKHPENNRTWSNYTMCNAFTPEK

[3] = target: T3, RAMP2-CTR ECD fusion protein (hRAMP2.55–140-(GSA)3-hCTR.34–141-H6) (human, UniProt O60895 55-140; P30988 34-141); assay: as above; details: both partners purified
T3 construct: human receptor activity-modifying protein 2 (RAMP2), extracellular domain, residues 55-140; linker, printed as (GSA)3; human calcitonin receptor (CTR), extracellular domain, residues 34-141; Secreted from a pHLsec-based vector; also called AMY receptor 2 ECD; RAMP2 ECD-CTR ECD fusion; source: HEK293T, transiently transfected, secreted to cell culture media, purified (IMAC, SEC)
T3 chain: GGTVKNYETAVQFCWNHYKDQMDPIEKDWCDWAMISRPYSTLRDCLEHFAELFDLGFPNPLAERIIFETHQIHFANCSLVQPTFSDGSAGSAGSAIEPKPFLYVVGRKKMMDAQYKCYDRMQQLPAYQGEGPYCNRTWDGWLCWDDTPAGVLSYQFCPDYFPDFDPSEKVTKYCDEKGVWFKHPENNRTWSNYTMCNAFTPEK

[4] = target: T4, RAMP3-CTR ECD fusion protein (hRAMP3.25–112-(GSA)3-hCTR.34–141-H6) (human, UniProt O60896 25-112; P30988 34-141); assay: as above; details: both partners purified
T4 construct: human receptor activity-modifying protein 3 (RAMP3), extracellular domain, residues 25-112; linker, printed as (GSA)3; human calcitonin receptor (CTR), extracellular domain, residues 34-141; Secreted from a pHLsec-based vector; also called AMY receptor 3 ECD; RAMP3 ECD-CTR ECD fusion protein; source: HEK293S GnTI-, transiently transfected (PEI), secreted to cell culture media, purified (IMAC, SEC)
T4 chain: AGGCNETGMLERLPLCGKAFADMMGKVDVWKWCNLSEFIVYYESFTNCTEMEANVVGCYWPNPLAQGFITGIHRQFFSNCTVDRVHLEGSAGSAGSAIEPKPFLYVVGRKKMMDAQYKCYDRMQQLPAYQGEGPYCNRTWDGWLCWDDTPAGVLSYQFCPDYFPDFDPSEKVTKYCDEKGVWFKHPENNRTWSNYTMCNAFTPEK

[5] = target: T5, calcitonin receptor extracellular domain (hCTR.34–141-H6) (human, UniProt P30988 34-141); assay: fluorescence polarisation; competition binding, full curves: FITC-sCT(22–32) probe 10 nM, CTR ECD 500 nM, competitive peptide at multiple concentrations, all in solution; KI from non-linear regression of anisotropy; details: both partners purified
T5 construct: human calcitonin receptor (CTR), extracellular domain, residues 34-141; Secreted from a pHLsec-based vector; also called CTR ECD; purified CTR ECD; source: HEK293T, transiently transfected, secreted to cell culture media, purified (IMAC, SEC)
T5 sequence (looked up): T1 sequence (P30988 34-141)

[6] = Figure 2b experiment set, read-out: pKI Mean ± SD (converted)
[7] = Figure 1d experiment set, pKI = –log10[KI] (M)

Ki ([1]; Figure 3b experiment set, read-out: pKI Mean ± SD (converted)): 3.16e-06 M
affinity decrease for the CTR ECD compared to sCT(22–32) with N26D/S29P mutations ([1]; Figure 3b, ratio of KI values, versus sCT(22–32) N26D/S29P): 13 fold
Molecule: C[C@@H](O)[C@H](NC(=O)[C@H](CC(=O)O)NC(=O)[C@@H](NC(=O)[C@H](CCCNC(=N)N)NC(=O)[C@@H]1CCCN1C(=O)[C@@H](N)Cc1ccc(O)cc1)[C@@H](C)O)C(=O)NCC(=O)N1C[C@H](O)C[C@H]1C(=O)NCC(=O)N[C@H](C(=O)N1CCC[C@H]1C(N)=O)[C@@H](C)O [sCT(22–32) N26D/S29HYP] (H-YPRTDTG[Hyp]GTP-NH2; N-terminus assumed)

Ki [1, 6]: 9.77e-07 M
Ki [1, 7]: 1e-06 M
Molecule: YPRTDTGSGTP-NH2 [sCT(22–32) N26D]

Ki [1, 6]: 5.89e-07 M
Molecule: YPRTDTGVGTP-NH2 [sCT(22–32) N26D/S29V]

Ki [1, 7]: 3.47e-07 M
Molecule: YPRTNTGPGTP-NH2 [sCT(22–32) S29P]

Ki [2]: 887 nM
pKI [2]: 6.05 -log10(M)
Ki [3]: 1430 nM
pKI [3]: 5.85 -log10(M)
Ki [4]: 995 nM
pKI [4]: 6 -log10(M)
Ki [5]: 887 nM
pKI [5]: 6.05 -log10(M)
B1: sCT(22–32) P32HYP (peptide)
peptide: YPRTNTGSGT[Hyp]-NH2
modifications: N-terminus assumed
SMILES: C[C@@H](O)[C@H](NC(=O)[C@H](CC(N)=O)NC(=O)[C@@H](NC(=O)[C@H](CCCNC(=N)N)NC(=O)[C@@H]1CCCN1C(=O)[C@@H](N)Cc1ccc(O)cc1)[C@@H](C)O)C(=O)NCC(=O)N[C@@H](CO)C(=O)NCC(=O)N[C@H](C(=O)N1C[C@H](O)C[C@H]1C(N)=O)[C@@H](C)O
notes: salmon calcitonin (sCT), residues 22-32, with P32HYP; numbers count on: the mature 32-residue hormone; Residue 32 is hydroxyproline, not plain proline; source: synthetic peptide (Genscript, HPLC-purified)

Ki [2]: 2550 nM
pKI [2]: 5.59 -log10(M)
Ki [3]: 2800 nM
pKI [3]: 5.55 -log10(M)
Ki [4]: 2560 nM
pKI [4]: 5.59 -log10(M)
Ki [5]: 2030 nM and 1760 nM
pKI [5]: 5.75 -log10(M) and 5.69 -log10(M)
B2: sCT(22–32) (peptide)
peptide: YPRTNTGSGTP-NH2
notes: salmon calcitonin (sCT), residues 22-32; numbers count on: the mature 32-residue hormone; also called wild-type sCT(22–32); salmon calcitonin fragment 22–32; source: synthetic peptide (Genscript, HPLC-purified)

Ki [5]: 343 nM
pKI [5]: 6.46 -log10(M)
B3: sCT(22–32) S29P (peptide)
peptide: YPRTNTGPGTP-NH2
notes: salmon calcitonin (sCT), residues 22-32, with S29P; numbers count on: the mature 32-residue hormone; source: synthetic peptide (Genscript, HPLC-purified)

Ki [2]: 124 nM
pKI [2]: 6.91 -log10(M)
Ki [3]: 340 nM
pKI [3]: 6.47 -log10(M)
Ki [4]: 118 nM
pKI [4]: 6.93 -log10(M)
Ki [5]: 95 nM
pKI [5]: 7.02 -log10(M)
B4: sCT(22–32) N26D/S29P/P32HYP (peptide)
peptide: YPRTDTGPGT[Hyp]-NH2
notes: salmon calcitonin (sCT), residues 22-32, with N26D, S29P and P32HYP; numbers count on: the mature 32-residue hormone; Residue 32 is hydroxyproline, not plain proline; also called the mutated sCT(22–32); sCT(22–32) with the combined mutations (N26D, S29P, and P32HYP); source: synthetic peptide (Genscript, HPLC-purified)

Ki [2]: 381 nM
pKI [2]: 6.42 -log10(M)
Ki [3]: 470 nM
pKI [3]: 6.33 -log10(M)
Ki [4]: 333 nM
pKI [4]: 6.48 -log10(M)
Ki [5]: 239 nM and 314 nM
pKI [5]: 6.62 -log10(M) and 6.5 -log10(M)
B5: sCT(22–32) N26D/S29P (peptide)
peptide: YPRTDTGPGTP-NH2
notes: salmon calcitonin (sCT), residues 22-32, with N26D and S29P; numbers count on: the mature 32-residue hormone; source: synthetic peptide (Genscript, HPLC-purified)

Ki [5]: 980 nM and 1000 nM
pKI [5]: 6.01 -log10(M) and 6 -log10(M)
B6: sCT(22–32) N26D (peptide)
peptide: YPRTDTGSGTP-NH2
notes: salmon calcitonin (sCT), residues 22-32, with N26D; numbers count on: the mature 32-residue hormone; also called sCT(22–32) N26D backbone peptide; source: synthetic peptide (Genscript, HPLC-purified)

Ki [5]: 3180 nM
pKI [5]: 5.5 -log10(M)
B7: sCT(22–32) N26D/S29HYP (peptide)
peptide: YPRTDTG[Hyp]GTP-NH2
modifications: N-terminus assumed
SMILES: C[C@@H](O)[C@H](NC(=O)[C@H](CC(=O)O)NC(=O)[C@@H](NC(=O)[C@H](CCCNC(=N)N)NC(=O)[C@@H]1CCCN1C(=O)[C@@H](N)Cc1ccc(O)cc1)[C@@H](C)O)C(=O)NCC(=O)N1C[C@H](O)C[C@H]1C(=O)NCC(=O)N[C@H](C(=O)N1CCC[C@H]1C(N)=O)[C@@H](C)O
notes: salmon calcitonin (sCT), residues 22-32, with N26D and S29HYP; printed as YPRTDTG[HYP]GTP-NH2, the hydroxyproline at 29 is written here as P; numbers count on: the mature 32-residue hormone; Residue 29 is hydroxyproline, not plain proline; source: synthetic peptide (Genscript, HPLC-purified)

Ki [5]: 591 nM
pKI [5]: 6.23 -log10(M)
B8: sCT(22–32) N26D/S29V (peptide)
peptide: YPRTDTGVGTP-NH2
notes: salmon calcitonin (sCT), residues 22-32, with N26D and S29V; numbers count on: the mature 32-residue hormone; source: synthetic peptide (Genscript, HPLC-purified)

Ki [5]: 437 nM
pKI [5]: 6.36 -log10(M)
B9: sCT(22–32) N26D/S29A (peptide)
peptide: YPRTDTGAGTP-NH2
notes: salmon calcitonin (sCT), residues 22-32, with N26D and S29A; numbers count on: the mature 32-residue hormone; source: synthetic peptide (Genscript, HPLC-purified)

— PMC8466238, “Development of High Affinity Calcitonin Analog Fragments Targeting Extracellular Domains of Calcitonin Family Receptors” (Biomolecules, 2021)
